# In patent US20140004120A1 (published 2014):
# T1: rsDR5 (recombinant human DR5 extracellular domain protein) (UniProt O14763 56-183)
# T1 chain: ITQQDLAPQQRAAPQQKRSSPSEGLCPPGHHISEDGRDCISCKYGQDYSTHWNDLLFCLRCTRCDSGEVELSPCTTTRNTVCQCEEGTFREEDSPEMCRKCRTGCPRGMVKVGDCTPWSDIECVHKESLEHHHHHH
# Target: T1, rsDR5 (recombinant human DR5 …)
# Assay: Biacore
row,Kd,Binder
1,2.02 nM,"hB273_H2-1-NE/hB273_L1-NE (antibody, V domains shown) VH: EVQLVQSGAEVKKPGASVKVSCKASGYSFIGYFMNWMKQSPGMSLEWIGRFNPYNEDTFYNQKFKGKATLTVDKSTSTAYMELSSLRSEDTAVYFCARSAYYFDSGGYFDYWGQGTLVTVSS VL: DIVMTQSPLSLPVTPGEPASISCRSSQSLVHSNENTYLHWYLQKPGQSPQLLIYKVSNRFSGVPDRFSGSGSGTDFTLKISRVEAEDVGVYYCSQSTHVPWTFGPGTKVEIKR"
2,1.76 nM,"hB273_H2-1-NE/hB273_L1-NL (antibody, V domains shown) VH: EVQLVQSGAEVKKPGASVKVSCKASGYSFIGYFMNWMKQSPGMSLEWIGRFNPYNEDTFYNQKFKGKATLTVDKSTSTAYMELSSLRSEDTAVYFCARSAYYFDSGGYFDYWGQGTLVTVSS VL: DIVMTQSPLSLPVTPGEPASISCRSSQSLVHSNLNTYLHWYLQKPGQSPQLLIYKVSNRFSGVPDRFSGSGSGTDFTLKISRVEAEDVGVYYCSQSTHVPWTFGPGTKVEIKR"
3,1.76 nM,"hB273_H2-1-NE/hB273_L1-NF (antibody, V domains shown) VH: EVQLVQSGAEVKKPGASVKVSCKASGYSFIGYFMNWMKQSPGMSLEWIGRFNPYNEDTFYNQKFKGKATLTVDKSTSTAYMELSSLRSEDTAVYFCARSAYYFDSGGYFDYWGQGTLVTVSS VL: DIVMTQSPLSLPVTPGEPASISCRSSQSLVHSNFNTYLHWYLQKPGQSPQLLIYKVSNRFSGVPDRFSGSGSGTDFTLKISRVEAEDVGVYYCSQSTHVPWTFGPGTKVEIKR"

# Target: T1, rsDR5 (recombinant human DR5 …)
# Assay: Biacore
# Remark: another data set of the same source
row,Binder,Kd
1,hB273_H2-3/hB273_L1 (antibody) heavy: not shown light: DIVMTQSPLSLPVTPGEPASISCRSSQSLVHSNGNTYLHWYLQKPGQSPQLLIYKVSNRFSGVPDRFSGSGSGTDFTLKISRVEAEDVGVYYCSQSTHVPWTFGPGTKVEIKRTVAAPSVFIFPPSDEQLKSGTASVVCLLNNFYPREAKVQWKVDNALQSGNSQESVTEQDSKDSTYSLSSTLTLSKADYEKHKVYACEVTHQGLSSPVTKSFNRGEC,2.12 nM
2,hB273_H2-2/hB273_L1 (antibody) heavy: not shown light: DIVMTQSPLSLPVTPGEPASISCRSSQSLVHSNGNTYLHWYLQKPGQSPQLLIYKVSNRFSGVPDRFSGSGSGTDFTLKISRVEAEDVGVYYCSQSTHVPWTFGPGTKVEIKRTVAAPSVFIFPPSDEQLKSGTASVVCLLNNFYPREAKVQWKVDNALQSGNSQESVTEQDSKDSTYSLSSTLTLSKADYEKHKVYACEVTHQGLSSPVTKSFNRGEC,2.14 nM
3,"hB273_H2-4/hB273_L1 (antibody, V domains shown) VH: QVQLVQSGAEVKKPGASVKVSCKASGYSFIGYFMNWMKQSPGMSLEWIGRFNPYNGDTFYNQKFKGKATLTVDKSTSTAYMELSSLRSEDTAVYFCGRSAYYFDSGGYFDYWGQGTLVTVSS VL: DIVMTQSPLSLPVTPGEPASISCRSSQSLVHSNGNTYLHWYLQKPGQSPQLLIYKVSNRFSGVPDRFSGSGSGTDFTLKISRVEAEDVGVYYCSQSTHVPWTFGPGTKVEIKR",1.55 nM
4,"hB273_H1-1/hB273_L1 (antibody, V domains shown) VH: QVQLVQSGAEVKKPGASVKVSCKASGYSFIGYFMNWMRQAPGMGLEWMGRFNPYNGDTFYNQKFKGRVTLTVDKSTSTAYMELSSLRSEDTAVYFCGRSAYYFDSGGYFDYWGQGTLVTVSS VL: DIVMTQSPLSLPVTPGEPASISCRSSQSLVHSNGNTYLHWYLQKPGQSPQLLIYKVSNRFSGVPDRFSGSGSGTDFTLKISRVEAEDVGVYYCSQSTHVPWTFGPGTKVEIKR",1.83 nM

# The remaining lines, values ahead:
row,Kd,Binder
1,1.99 nM,hB273_H2-1/hB273_L1 (antibody) heavy: not shown light: DIVMTQSPLSLPVTPGEPASISCRSSQSLVHSNGNTYLHWYLQKPGQSPQLLIYKVSNRFSGVPDRFSGSGSGTDFTLKISRVEAEDVGVYYCSQSTHVPWTFGPGTKVEIKRTVAAPSVFIFPPSDEQLKSGTASVVCLLNNFYPREAKVQWKVDNALQSGNSQESVTEQDSKDSTYSLSSTLTLSKADYEKHKVYACEVTHQGLSSPVTKSFNRGEC
2,1.38 nM,"hB273_H2-5/hB273_L1 (antibody, V domains shown) VH: QVQLVQSGAEVKKPGASVKVSCKASGYSFIGYFMNWMKQSPGKSLEWIGRFNPYNGDTFYNQKFKGKATLTVDKSTSTAYMELSSLRSEDTAVYFCGRSAYYFDSGGYFDYWGQGTLVTVSS VL: DIVMTQSPLSLPVTPGEPASISCRSSQSLVHSNGNTYLHWYLQKPGQSPQLLIYKVSNRFSGVPDRFSGSGSGTDFTLKISRVEAEDVGVYYCSQSTHVPWTFGPGTKVEIKR"

# Target: T1, rsDR5 (recombinant human DR5 …)
# Assay: Biacore
# Remark: another data set of the same source
row,Binder,Kd
1,hB273_H1/hB273_L2 (antibody) heavy: not shown light: DVVMTQTPLSLPVSLGEPASISCRSSQSLVHSNGNTYLHWYLQKPGQSPKLLIYKVSNRFSGVPDRFSGSGSGTDFTLKISRVEAEDVGVYFCSQSTHVPWTFGPGTKVEIKRTVAAPSVFIFPPSDEQLKSGTASVVCLLNNFYPREAKVQWKVDNALQSGNSQESVTEQDSKDSTYSLSSTLTLSKADYEKHKVYACEVTHQGLSSPVTKSFNRGEC,6.53 nM
2,hB273_H2/hB273_L1 (antibody) heavy: not shown light: DIVMTQSPLSLPVTPGEPASISCRSSQSLVHSNGNTYLHWYLQKPGQSPQLLIYKVSNRFSGVPDRFSGSGSGTDFTLKISRVEAEDVGVYYCSQSTHVPWTFGPGTKVEIKRTVAAPSVFIFPPSDEQLKSGTASVVCLLNNFYPREAKVQWKVDNALQSGNSQESVTEQDSKDSTYSLSSTLTLSKADYEKHKVYACEVTHQGLSSPVTKSFNRGEC,4.36 nM
3,hB273_H1/hB273_L3 (antibody) heavy: not shown light: DVVMTQTPLSLPVSLGEPASISCRSSQSLVHSNGNTYLHWYLQKPGQSPKLLIYKVSNRFSGVPDRFSGSGSGTDFTLKISRVEAEDVGVYFCSQSTHVPWTFGGGTKVEIKRTVAAPSVFIFPPSDEQLKSGTASVVCLLNNFYPREAKVQWKVDNALQSGNSQESVTEQDSKDSTYSLSSTLTLSKADYEKHKVYACEVTHQGLSSPVTKSFNRGEC,6.04 nM
4,hB273_H3/hB273_L3 (antibody) heavy: not shown light: DVVMTQTPLSLPVSLGEPASISCRSSQSLVHSNGNTYLHWYLQKPGQSPKLLIYKVSNRFSGVPDRFSGSGSGTDFTLKISRVEAEDVGVYFCSQSTHVPWTFGGGTKVEIKRTVAAPSVFIFPPSDEQLKSGTASVVCLLNNFYPREAKVQWKVDNALQSGNSQESVTEQDSKDSTYSLSSTLTLSKADYEKHKVYACEVTHQGLSSPVTKSFNRGEC,2.15 nM
5,hB273_H2/hB273_L2 (antibody) heavy: not shown light: DVVMTQTPLSLPVSLGEPASISCRSSQSLVHSNGNTYLHWYLQKPGQSPKLLIYKVSNRFSGVPDRFSGSGSGTDFTLKISRVEAEDVGVYFCSQSTHVPWTFGPGTKVEIKRTVAAPSVFIFPPSDEQLKSGTASVVCLLNNFYPREAKVQWKVDNALQSGNSQESVTEQDSKDSTYSLSSTLTLSKADYEKHKVYACEVTHQGLSSPVTKSFNRGEC,4.47 nM
6,hB273_H2/hB273_L3 (antibody) heavy: not shown light: DVVMTQTPLSLPVSLGEPASISCRSSQSLVHSNGNTYLHWYLQKPGQSPKLLIYKVSNRFSGVPDRFSGSGSGTDFTLKISRVEAEDVGVYFCSQSTHVPWTFGGGTKVEIKRTVAAPSVFIFPPSDEQLKSGTASVVCLLNNFYPREAKVQWKVDNALQSGNSQESVTEQDSKDSTYSLSSTLTLSKADYEKHKVYACEVTHQGLSSPVTKSFNRGEC,5.4 nM

# Now from value to binder:
row,Kd,Binder
1,2.19 nM,hB273_H3/hB273_L2 (antibody) heavy: not shown light: DVVMTQTPLSLPVSLGEPASISCRSSQSLVHSNGNTYLHWYLQKPGQSPKLLIYKVSNRFSGVPDRFSGSGSGTDFTLKISRVEAEDVGVYFCSQSTHVPWTFGPGTKVEIKRTVAAPSVFIFPPSDEQLKSGTASVVCLLNNFYPREAKVQWKVDNALQSGNSQESVTEQDSKDSTYSLSSTLTLSKADYEKHKVYACEVTHQGLSSPVTKSFNRGEC
2,5.45 nM,"hB273_H1/hB273_L1 (antibody, V domains shown) VH: QVQLVQSGAEVKKPGASVKVSCKASGYSFIGYFMNWVRQAPGMGLEWMGRFNPYNGDTFYNQKFKGRVTLTVDKSTSTAYMELSSLRSEDTAVYYCARSAYYFDSGGYFDYWGQGTLVTVSS VL: DIVMTQSPLSLPVTPGEPASISCRSSQSLVHSNGNTYLHWYLQKPGQSPQLLIYKVSNRFSGVPDRFSGSGSGTDFTLKISRVEAEDVGVYYCSQSTHVPWTFGPGTKVEIKR"
3,2.4 nM,"hB273_H3/hB273_L1 (antibody, V domains shown) VH: EVQLVQSGAEVKKPGASVKVSCKASGYSFIGYFMNWMKQSPGKSLEWIGRFNPYNGDTFYNQKFKGKATLTVDKSTSTAHMELSSLRSEDTAVYFCGRSAYYFDSGGYFDYWGQGTLVTVSS VL: DIVMTQSPLSLPVTPGEPASISCRSSQSLVHSNGNTYLHWYLQKPGQSPQLLIYKVSNRFSGVPDRFSGSGSGTDFTLKISRVEAEDVGVYYCSQSTHVPWTFGPGTKVEIKR"
